This note sets out measurements from publication PMC6684861 (Traffic (Copenhagen, Denmark), 2018).

No end group written: not given here.

The assay concerns the target His-tagged murine Importin α1 with the Importin β binding domain (IBB) deleted (ImpαΔIBB) (murine, UniProt P52293 70-529). Briefly: crystal structure.
Ac-SHLSPRKKRPRQTGAL [TdT NLS peptide for crystallization, Ac-S7HLSPRKKRPRQTGAL]: the binding result is given as “binds”.
In the case of Ac-RGILKAFPKRQKIHADASSKVLAKIPRRE [pol λ NLS peptide for crystallization, Ac-R4GILKAFPKRQKIHADASSKVLAKIPRRE], the binding result was “binds”.
With Ac-LPKRRRARVGSPSGDAASSTPPSTRFPGV [pol μ NLS peptide for crystallization, Ac-L2PKRRRARVGSPSGDAASSTPPSTRFPGV], the binding result is listed as “binds”.
